This experiment has as its target T1, human VLA4 (integrin alpha4beta1) on the surface of U937 cells (human, UniProt P13612 34-1032; P05556 21-798).
T1 construct: whole, on cells; Endogenous VLA4 of U937 cells; assay buffer held 1 mM each of CaCl2, MgCl2 and MnCl2; also called cell-surface human VLA4
The experiment is described as follows: static cell adhesion assay: calcein-labelled U937 cells on wells coated with 7D-VCAM-1, buffer with 1 mM MnCl2 (Example 13). The procedure: Prior to assaying, the U937 cells were re-suspended in labeling buffer (RPMI 1640 culture media without phenol red, 10% FBS; Invitrogen), then labeled with 0.5 μg/ml Calcein-AM at 37° C. for 30 minutes on a rotator. Subsequently, the cells were washed three times with labeling buffer then resuspended at 5×10^6 cells/ml in assay buffer (HEPES CaMgMn buffer: 50 mM HEPES, 150 mM NaCl, 1 mM CaCl₂, 1 mM MgCl₂, 1 mM MnCl2 pH 7.4).
The test compounds (i.e., the 2D-VCAM-1 variant polypeptides) were diluted in dilution buffer and added to VCAM-1-coated plates. […] Plates were spun down at 280×g for 5 minutes with assay buffer decanted by inversion before measuring fluorescence intensity (excitation=485 nm, emission=530 nm) with LJL Analyst HT 96.384 (Molecular Devices, Sunnyvale, Calif.).
FIG. 5 is a graph showing the cell adhesion index for anti-VLA4-antibody (used as a positive control for maximal inhibition of cell adherence), dilution buffer alone (“no treatment”, a control to show maximal cell adherence to the immobilized VCAM-1), 2D-VCAM-1 valiant Clone 46 (SEQ ID NO:12), Q38L-2D-VCAM-1 polypeptide (SEQ ID NO:10), and human 2D-VCAM-1 (SEQ ID NO:2). The cell adhesion index was calculated as (fluorescence intensity, VCAM-coated well)/(fluorescence intensity, non-CAM-1-coated well). […]

T1 sequence (P13612 34-1032, chain 1 of 2): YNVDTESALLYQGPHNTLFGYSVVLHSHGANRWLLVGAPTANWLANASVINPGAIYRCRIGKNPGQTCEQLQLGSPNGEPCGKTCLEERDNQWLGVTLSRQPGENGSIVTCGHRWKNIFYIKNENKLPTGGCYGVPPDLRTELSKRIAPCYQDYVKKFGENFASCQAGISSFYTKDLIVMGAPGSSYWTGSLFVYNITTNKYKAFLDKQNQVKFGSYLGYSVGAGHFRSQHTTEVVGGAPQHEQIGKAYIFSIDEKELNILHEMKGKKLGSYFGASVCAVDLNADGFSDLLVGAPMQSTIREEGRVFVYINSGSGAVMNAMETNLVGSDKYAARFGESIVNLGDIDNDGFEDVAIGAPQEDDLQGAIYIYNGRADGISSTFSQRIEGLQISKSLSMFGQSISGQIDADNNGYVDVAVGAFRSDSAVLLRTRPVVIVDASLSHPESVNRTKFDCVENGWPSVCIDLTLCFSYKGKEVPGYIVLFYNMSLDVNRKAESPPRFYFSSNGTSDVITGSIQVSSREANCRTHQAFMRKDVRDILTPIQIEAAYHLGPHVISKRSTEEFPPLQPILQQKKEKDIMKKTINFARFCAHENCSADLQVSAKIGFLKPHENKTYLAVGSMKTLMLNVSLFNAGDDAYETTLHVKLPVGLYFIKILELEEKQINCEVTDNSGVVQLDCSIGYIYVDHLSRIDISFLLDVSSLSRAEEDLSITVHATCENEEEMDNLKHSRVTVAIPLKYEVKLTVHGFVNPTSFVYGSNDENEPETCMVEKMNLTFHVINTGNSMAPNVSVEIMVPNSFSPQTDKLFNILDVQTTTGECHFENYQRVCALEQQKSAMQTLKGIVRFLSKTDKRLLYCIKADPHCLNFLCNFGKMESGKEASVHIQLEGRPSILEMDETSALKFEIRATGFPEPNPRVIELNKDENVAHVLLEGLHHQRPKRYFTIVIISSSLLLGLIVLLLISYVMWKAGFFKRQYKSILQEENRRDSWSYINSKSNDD
T1 sequence (P05556 21-798, chain 2 of 2): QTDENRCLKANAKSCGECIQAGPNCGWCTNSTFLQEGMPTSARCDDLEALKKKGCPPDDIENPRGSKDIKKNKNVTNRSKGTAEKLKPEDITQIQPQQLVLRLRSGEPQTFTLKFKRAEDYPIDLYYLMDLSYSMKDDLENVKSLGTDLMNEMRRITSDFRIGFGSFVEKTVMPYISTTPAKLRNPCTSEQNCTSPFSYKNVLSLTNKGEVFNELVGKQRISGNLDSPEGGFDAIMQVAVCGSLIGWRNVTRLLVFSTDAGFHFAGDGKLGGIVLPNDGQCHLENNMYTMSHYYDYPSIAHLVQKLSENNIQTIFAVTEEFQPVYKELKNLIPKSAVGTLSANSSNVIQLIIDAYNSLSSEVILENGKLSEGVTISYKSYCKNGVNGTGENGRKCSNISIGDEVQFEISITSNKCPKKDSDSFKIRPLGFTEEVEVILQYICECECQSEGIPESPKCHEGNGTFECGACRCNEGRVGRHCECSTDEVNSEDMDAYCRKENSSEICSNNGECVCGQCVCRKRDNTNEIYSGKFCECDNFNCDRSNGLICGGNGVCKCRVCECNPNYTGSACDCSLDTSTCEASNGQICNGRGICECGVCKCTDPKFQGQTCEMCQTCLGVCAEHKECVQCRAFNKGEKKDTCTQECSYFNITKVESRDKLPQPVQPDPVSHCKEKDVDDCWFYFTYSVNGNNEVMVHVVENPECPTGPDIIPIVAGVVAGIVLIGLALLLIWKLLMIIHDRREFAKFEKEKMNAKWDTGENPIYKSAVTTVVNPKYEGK

B1: recombinant human 7D-VCAM-1 (ligand)
chain: FKIETTPESRYLAQIGDSVSLTCSTTGCESPFFSWRTQIDSPLNGKVTNEGTTSTLTMNPVSFGNEHSYLCTATCESRKLEKGIQVEIYSFPKDPEIHLSGPLEAGKPITVKCSVADVYPFDRLEIDLLKGDHLMKSQEFLEDADRKSLETKSLEVTFTPVIEDIGKVLVCRAKLHIDEMDSVPTVRQAVKELQVYISPKNTVISVNPSTKLQEGGSVTMTCSSEGLPAPEIFWSKKLDNGNLQHLSGNATLTLIAMRMEDSGIYVCEGVNLIGKNRKEVELIVQEKPFTVEISPGPRIAAQIGDSVMLTCSVMGCESPSFSWRTQIDSPLSGKVRSEGTNSTLTLSPVSFENEHSYLCTVTCGHKKLEKGIQVELYSFPRDPEIEMSGGLVNGSSVTVSCKVPSVYPLDRLEIELLKGETILENIEFLEDTDMKSLENKSLEMTFIPTIEDTGKALVCQAKLHIDDMEFEPKQRQSTQTLYVNVAPRDTTVLVSPSSILEEGSSVNMTCLSQGFPAPKILWSRQLPNGELQPLSENATLTLISTKMEDSGVYLCEGINQAGRSRKEVELIIQVTPKDIKLTAFPSESVKEGDTVIISCTCGNVPETWIILKKKAETGDTVLKSIDGAYTIRKAQLKDAGVYECESKNKVGSQLRSLTL
notes: Bought from R&D Systems; also called immobilized VCAM-1; 7 domain form of VCAM-1
Consider B1, for which the binding result was “binds”.

(Values after patent US20120135912A1 (PERSEID THERAPEUTICS, published 2012).)
